One block for each binder: values may come before it.
Columns and labels:
Assay in all cases: two-hybrid library CCmax;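 also: natural log of median RNA to DNA barcode read ratio; higher means stronger binding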
[1] = target: T1, P2-AA; details: mean of both orientations
T1 chain: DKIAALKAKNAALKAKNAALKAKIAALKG

[2] = target: T2, P2-AA-1HGe-Q; details: mean of both orientations
T2 chain: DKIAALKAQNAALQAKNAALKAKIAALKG

[3] = target: T3, P2-AA-1HGe-D; details: mean of both orientations
T3 chain: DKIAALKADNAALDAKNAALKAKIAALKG

[4] = target: T4, P2-AA-1HGe-T; details: mean of both orientations
T4 chain: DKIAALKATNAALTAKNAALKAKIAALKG

[5] = target: T5, P2-AA-1HGe-M; details: mean of both orientations
T5 chain: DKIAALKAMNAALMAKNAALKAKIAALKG

[6] = target: T6, P2-AA-1HGe-A; details: mean of both orientations
T6 chain: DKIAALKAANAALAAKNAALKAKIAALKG

[7] = target: T7, 4H2907-AA; details: mean of both orientations
T7 chain: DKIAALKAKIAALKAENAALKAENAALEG

[8] = target: T8, 4H3133-AA; details: mean of both orientations
T8 chain: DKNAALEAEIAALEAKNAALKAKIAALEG

[9] = target: T9, 4H3413-AA; details: mean of both orientations
T9 chain: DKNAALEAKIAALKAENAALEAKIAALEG

[10] = target: T10, 4H3378-AA; details: mean of both orientations
T10 chain: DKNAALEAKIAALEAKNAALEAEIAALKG

[11] = target: T11, 4H3865-AA; details: mean of both orientations
T11 chain: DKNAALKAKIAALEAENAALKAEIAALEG

[12] = target: T12, 4H3606-AA; details: mean of both orientations
T12 chain: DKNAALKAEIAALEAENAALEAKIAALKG

[13] = target: T13, 4H3162-AA; details: mean of both orientations
T13 chain: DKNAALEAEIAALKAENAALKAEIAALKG

[14] = target: T14, 4H3718-AA; details: mean of both orientations
T14 chain: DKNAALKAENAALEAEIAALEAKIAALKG

[15] = target: T15, 4H2198-AA; details: mean of both orientations
T15 chain: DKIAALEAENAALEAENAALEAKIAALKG

[16] = target: T16, 4H3631-AA; details: mean of both orientations
T16 chain: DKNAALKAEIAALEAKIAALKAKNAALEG

[17] = target: T17, 4H3056-AA; details: mean of both orientations
T17 chain: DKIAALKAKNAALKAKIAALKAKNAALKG

[18] = target: T18, 4H2611-AA; details: mean of both orientations
T18 chain: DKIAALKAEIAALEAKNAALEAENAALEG

[19] = target: T19, 4H1874-AA
T19 chain: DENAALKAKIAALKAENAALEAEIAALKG

[20] = target: T20, 4H3697-AA; details: mean of both orientations
T20 chain: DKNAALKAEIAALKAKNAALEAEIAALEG

[21] = target: T21, 4H2553-AA; details: mean of both orientations
T21 chain: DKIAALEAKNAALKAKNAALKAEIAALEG

[22] = target: T22, 4H340-AA; details: mean of both orientations
T22 chain: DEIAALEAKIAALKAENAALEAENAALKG

[23] = target: T23, 4H982-AA; details: mean of both orientations
T23 chain: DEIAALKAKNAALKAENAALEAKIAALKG

[24] = target: T24, 4H2620-AA; details: mean of both orientations
T24 chain: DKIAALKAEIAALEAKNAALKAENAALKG

[25] = target: T25, 4H384-AA; details: mean of both orientations
T25 chain: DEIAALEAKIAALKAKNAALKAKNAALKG

[26] = target: T26, 4H697-AA; details: mean of both orientations
T26 chain: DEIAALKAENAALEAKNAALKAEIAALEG

[27] = target: T27, 4H3588-AA; details: mean of both orientations
T27 chain: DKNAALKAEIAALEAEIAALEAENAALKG

[28] = target: T28, 4H32-AA; details: mean of both orientations
T28 chain: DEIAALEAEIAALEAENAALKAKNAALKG

[29] = target: T29, 4H2648-AA; details: mean of both orientations
T29 chain: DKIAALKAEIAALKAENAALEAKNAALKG

[30] = target: T30, 4H3605-AA; details: mean of both orientations
T30 chain: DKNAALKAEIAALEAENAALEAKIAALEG

[31] = target: T31, 4H2726-AA; details: mean of both orientations
T31 chain: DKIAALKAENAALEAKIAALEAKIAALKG

[32] = target: T32, 4H327-AA; details: mean of both orientations
T32 chain: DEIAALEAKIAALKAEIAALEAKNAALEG

[33] = target: T33, 4H2935-AA; details: mean of both orientations
T33 chain: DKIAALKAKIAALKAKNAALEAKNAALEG

[34] = target: T34, 4H481-AA; details: mean of both orientations
T34 chain: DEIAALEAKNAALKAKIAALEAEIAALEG

[35] = target: T35, 4H369-AA; details: mean of both orientations
T35 chain: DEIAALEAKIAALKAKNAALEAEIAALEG

[36] = target: T36, 4H4033-AA; details: mean of both orientations
T36 chain: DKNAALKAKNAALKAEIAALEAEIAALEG

[37] = target: T37, 4H3625-AA; details: mean of both orientations
T37 chain: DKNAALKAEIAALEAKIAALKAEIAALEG

[38] = target: T38, 4H3922-AA; details: mean of both orientations
T38 chain: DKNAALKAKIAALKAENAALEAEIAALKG

[39] = target: T39, 4H3664-AA; details: mean of both orientations
T39 chain: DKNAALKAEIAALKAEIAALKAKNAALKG

[40] = target: T40, 4H55-AA; details: mean of both orientations
T40 chain: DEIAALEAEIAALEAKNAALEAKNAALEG

[41] = target: T41, 4H662-AA; details: mean of both orientations
T41 chain: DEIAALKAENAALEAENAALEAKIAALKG

[42] = target: T42, 4H2614-AA
T42 chain: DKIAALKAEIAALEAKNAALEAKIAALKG

interaction score [1]: 1.91
interaction score [2]: 2.03
interaction score [3]: 0.303
interaction score [4]: 1.92
interaction score [5]: 1.74
interaction score [6]: 1.58
Binder: DEIAALEADNAALDAENAALEAEIAALEG [P1-AA-1HGe-D]

interaction score [1]: 1.75
interaction score [2]: 2.11
interaction score [3]: 1.67
interaction score [4]: 2.21
interaction score [5]: 2.05
interaction score [6]: 2.14
Binder: DEIAALEAQNAALQAENAALEAEIAALEG [P1-AA-1HGe-Q]

interaction score [7]: -1.61
interaction score [8]: 1.46
interaction score [9]: -1.35
interaction score [10]: -0.221
interaction score [11]: 1.13
interaction score [12]: 2.08
interaction score [13]: 1.38
interaction score [14]: -1.5
interaction score [15]: -1.15
interaction score [16]: -1.14
interaction score [17]: -0.229
interaction score [18]: -1.33
interaction score [19]: 1.18
interaction score [20]: -0.269
interaction score [21]: -1.21
interaction score [22]: -1.94
interaction score [23]: -1.36
interaction score [24]: 1.59
interaction score [25]: -0.973
interaction score [26]: 1.47
interaction score [27]: -1.22
interaction score [28]: 1.23
interaction score [29]: -1.44
Binder: DENAALKAKIAALKAENAALEAEIAALKG [4H1874-AA]

interaction score [30]: -0.49
interaction score [31]: -0.336
interaction score [32]: -0.0398
interaction score [33]: 0.084
interaction score [34]: 1.06
interaction score [35]: 2.41
interaction score [36]: -1.43
interaction score [37]: 0.314
interaction score [38]: 0.659
interaction score [39]: -1.11
interaction score [40]: -0.185
interaction score [41]: -1.17
interaction score [42]: 1.46
Binder: DKIAALKAEIAALEAKNAALEAKIAALKG [4H2614-AA]

— PMC10397247
